Numbered stars: 1 amine (or outer) side, 2 acyl side, 3 side chain; on linkers, the order of the positions; unused ones are H or OH. Bridge positions count the residues as written; N and C are the ends. Side chains are listed from the residue outwards. Ends that are not written are not given here. * marks the point of attachment. C20 diacid = O=C(O)CCCCCCCCCCCCCCCCCCC(=O)*; γGlu = O=C(O)[C@H](CCC(=O)[*:2])N[*:1]

T1: human amylin receptor (human, UniProt P30988 25-474; O60896 24-148, limits assumed)
T1 construct: whole, on cells; Calcitonin receptor plus RAMP-3 gives the amylin 3(a) receptor; membranes of Amylin 3(a)/CRE-luc cells were used; also called hAmylin-R; hAmylinR
T1 sequence (looked up) 1: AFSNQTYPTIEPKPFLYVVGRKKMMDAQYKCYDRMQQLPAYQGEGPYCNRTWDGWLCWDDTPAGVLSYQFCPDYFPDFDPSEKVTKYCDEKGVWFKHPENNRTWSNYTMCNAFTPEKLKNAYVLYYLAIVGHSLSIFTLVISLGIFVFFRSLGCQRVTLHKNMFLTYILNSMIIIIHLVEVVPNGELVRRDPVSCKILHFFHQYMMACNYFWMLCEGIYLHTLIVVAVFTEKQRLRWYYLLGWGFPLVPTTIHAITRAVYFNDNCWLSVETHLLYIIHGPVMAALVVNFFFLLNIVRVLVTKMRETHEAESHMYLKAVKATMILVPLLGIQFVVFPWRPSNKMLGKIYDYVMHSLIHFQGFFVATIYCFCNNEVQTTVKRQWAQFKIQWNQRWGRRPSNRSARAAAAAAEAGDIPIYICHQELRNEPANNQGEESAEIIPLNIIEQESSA
T1 sequence (looked up) 2: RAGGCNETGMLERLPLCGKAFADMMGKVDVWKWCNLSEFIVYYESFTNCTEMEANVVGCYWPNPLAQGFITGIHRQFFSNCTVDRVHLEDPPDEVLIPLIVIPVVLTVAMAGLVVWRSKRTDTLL

B1: N^ε1-[(4S)-4-carboxy-4-(19-carboxynonadecanoylamino)butanoyl]-[His14,Arg17,Pro21,Pro27,Pro34,Pro37]-h-amylin (peptide)
peptide: K([γGlu-C20 diacid])CNTATCATQRLAHFLRHSSPNFGAIPSSTNVGPNTP-NH2
modifications: disulfide 2-7; N-terminus assumed
SMILES: CC[C@H](C)[C@H](NC(=O)[C@H](C)NC(=O)CNC(=O)[C@H](Cc1ccccc1)NC(=O)[C@H](CC(N)=O)NC(=O)[C@@H]1CCCN1C(=O)[C@H](CO)NC(=O)[C@H](CO)NC(=O)[C@H](Cc1c[nH]cn1)NC(=O)[C@H](CCCNC(=N)N)NC(=O)[C@H](CC(C)C)NC(=O)[C@H](Cc1ccccc1)NC(=O)[C@H](Cc1c[nH]cn1)NC(=O)[C@H](C)NC(=O)[C@H](CC(C)C)NC(=O)[C@H](CCCNC(=N)N)NC(=O)[C@H](CCC(N)=O)NC(=O)[C@@H](NC(=O)[C@H](C)NC(=O)[C@@H]1CSSC[C@H](NC(=O)[C@@H](N)CCCCNC(=O)CC[C@H](NC(=O)CCCCCCCCCCCCCCCCCCC(=O)O)C(=O)O)C(=O)N[C@@H](CC(N)=O)C(=O)N[C@@H]([C@@H](C)O)C(=O)N[C@@H](C)C(=O)N[C@@H]([C@@H](C)O)C(=O)N1)[C@@H](C)O)C(=O)N1CCC[C@H]1C(=O)N[C@@H](CO)C(=O)N[C@@H](CO)C(=O)N[C@H](C(=O)N[C@@H](CC(N)=O)C(=O)N[C@H](C(=O)NCC(=O)N1CCC[C@H]1C(=O)N[C@@H](CC(N)=O)C(=O)N[C@H](C(=O)N1CCC[C@H]1C(N)=O)[C@@H](C)O)C(C)C)[C@@H](C)O
notes: also called 14H, 17R, 21P, 27P, 34P, 37P
B2: N^ε1-[(4S)-4-carboxy-4-[[(4S)-4-carboxy-4-(19-carboxynonadecanoylamino)butanoyl]amino]butanoyl]-[Asp14,Arg17,Pro21,Pro27,Pro34,Glu35]-h-amylin (peptide)
peptide: K([γGlu-γGlu-C20 diacid])CNTATCATQRLADFLRHSSPNFGAIPSSTNVGPETY-NH2
modifications: disulfide 2-7; N-terminus assumed
SMILES: CC[C@H](C)[C@H](NC(=O)[C@H](C)NC(=O)CNC(=O)[C@H](Cc1ccccc1)NC(=O)[C@H](CC(N)=O)NC(=O)[C@@H]1CCCN1C(=O)[C@H](CO)NC(=O)[C@H](CO)NC(=O)[C@H](Cc1c[nH]cn1)NC(=O)[C@H](CCCNC(=N)N)NC(=O)[C@H](CC(C)C)NC(=O)[C@H](Cc1ccccc1)NC(=O)[C@H](CC(=O)O)NC(=O)[C@H](C)NC(=O)[C@H](CC(C)C)NC(=O)[C@H](CCCNC(=N)N)NC(=O)[C@H](CCC(N)=O)NC(=O)[C@@H](NC(=O)[C@H](C)NC(=O)[C@@H]1CSSC[C@H](NC(=O)[C@@H](N)CCCCNC(=O)CC[C@H](NC(=O)CC[C@H](NC(=O)CCCCCCCCCCCCCCCCCCC(=O)O)C(=O)O)C(=O)O)C(=O)N[C@@H](CC(N)=O)C(=O)N[C@@H]([C@@H](C)O)C(=O)N[C@@H](C)C(=O)N[C@@H]([C@@H](C)O)C(=O)N1)[C@@H](C)O)C(=O)N1CCC[C@H]1C(=O)N[C@@H](CO)C(=O)N[C@@H](CO)C(=O)N[C@H](C(=O)N[C@@H](CC(N)=O)C(=O)N[C@H](C(=O)NCC(=O)N1CCC[C@H]1C(=O)N[C@@H](CCC(=O)O)C(=O)N[C@H](C(=O)N[C@@H](Cc1ccc(O)cc1)C(N)=O)[C@@H](C)O)C(C)C)[C@@H](C)O
notes: also called 14D, 17R, 21P, 27P, 34P, 35E
B3: N^ε1-[(4S)-4-carboxy-4-(19-carboxynonadecanoylamino)butanoyl]-[His14,Arg17,Pro21,Pro27]-h-amylin (peptide)
peptide: K([γGlu-C20 diacid])CNTATCATQRLAHFLRHSSPNFGAIPSSTNVGSNTY-NH2
modifications: disulfide 2-7; N-terminus assumed
SMILES: CC[C@H](C)[C@H](NC(=O)[C@H](C)NC(=O)CNC(=O)[C@H](Cc1ccccc1)NC(=O)[C@H](CC(N)=O)NC(=O)[C@@H]1CCCN1C(=O)[C@H](CO)NC(=O)[C@H](CO)NC(=O)[C@H](Cc1c[nH]cn1)NC(=O)[C@H](CCCNC(=N)N)NC(=O)[C@H](CC(C)C)NC(=O)[C@H](Cc1ccccc1)NC(=O)[C@H](Cc1c[nH]cn1)NC(=O)[C@H](C)NC(=O)[C@H](CC(C)C)NC(=O)[C@H](CCCNC(=N)N)NC(=O)[C@H](CCC(N)=O)NC(=O)[C@@H](NC(=O)[C@H](C)NC(=O)[C@@H]1CSSC[C@H](NC(=O)[C@@H](N)CCCCNC(=O)CC[C@H](NC(=O)CCCCCCCCCCCCCCCCCCC(=O)O)C(=O)O)C(=O)N[C@@H](CC(N)=O)C(=O)N[C@@H]([C@@H](C)O)C(=O)N[C@@H](C)C(=O)N[C@@H]([C@@H](C)O)C(=O)N1)[C@@H](C)O)C(=O)N1CCC[C@H]1C(=O)N[C@@H](CO)C(=O)N[C@@H](CO)C(=O)N[C@H](C(=O)N[C@@H](CC(N)=O)C(=O)N[C@H](C(=O)NCC(=O)N[C@@H](CO)C(=O)N[C@@H](CC(N)=O)C(=O)N[C@H](C(=O)N[C@@H](Cc1ccc(O)cc1)C(N)=O)[C@@H](C)O)C(C)C)[C@@H](C)O
notes: also called 14H, 17R, 21P, 27P
B4: N^ε1-[(4S)-4-carboxy-4-[[(4S)-4-carboxy-4-(19-carboxynonadecanoylamino)butanoyl]amino]butanoyl]-[Asp14,Arg17,Pro21,Pro27,Asp35]-h-amylin (peptide)
peptide: K([γGlu-γGlu-C20 diacid])CNTATCATQRLADFLRHSSPNFGAIPSSTNVGSDTY-NH2
modifications: disulfide 2-7; N-terminus assumed
SMILES: CC[C@H](C)[C@H](NC(=O)[C@H](C)NC(=O)CNC(=O)[C@H](Cc1ccccc1)NC(=O)[C@H](CC(N)=O)NC(=O)[C@@H]1CCCN1C(=O)[C@H](CO)NC(=O)[C@H](CO)NC(=O)[C@H](Cc1c[nH]cn1)NC(=O)[C@H](CCCNC(=N)N)NC(=O)[C@H](CC(C)C)NC(=O)[C@H](Cc1ccccc1)NC(=O)[C@H](CC(=O)O)NC(=O)[C@H](C)NC(=O)[C@H](CC(C)C)NC(=O)[C@H](CCCNC(=N)N)NC(=O)[C@H](CCC(N)=O)NC(=O)[C@@H](NC(=O)[C@H](C)NC(=O)[C@@H]1CSSC[C@H](NC(=O)[C@@H](N)CCCCNC(=O)CC[C@H](NC(=O)CC[C@H](NC(=O)CCCCCCCCCCCCCCCCCCC(=O)O)C(=O)O)C(=O)O)C(=O)N[C@@H](CC(N)=O)C(=O)N[C@@H]([C@@H](C)O)C(=O)N[C@@H](C)C(=O)N[C@@H]([C@@H](C)O)C(=O)N1)[C@@H](C)O)C(=O)N1CCC[C@H]1C(=O)N[C@@H](CO)C(=O)N[C@@H](CO)C(=O)N[C@H](C(=O)N[C@@H](CC(N)=O)C(=O)N[C@H](C(=O)NCC(=O)N[C@@H](CO)C(=O)N[C@@H](CC(=O)O)C(=O)N[C@H](C(=O)N[C@@H](Cc1ccc(O)cc1)C(N)=O)[C@@H](C)O)C(C)C)[C@@H](C)O
notes: also called 14D, 17R, 21P, 27P, 35D
B5: N^ε1-[(4S)-4-carboxy-4-[[(4S)-4-carboxy-4-(19-carboxynonadecanoylamino)butanoyl]amino]butanoyl]-[Asp14,Arg17,Pro21,Pro27,Arg35]-h-amylin (peptide)
peptide: K([γGlu-γGlu-C20 diacid])CNTATCATQRLADFLRHSSPNFGAIPSSTNVGSRTY-NH2
modifications: disulfide 2-7; N-terminus assumed
SMILES: CC[C@H](C)[C@H](NC(=O)[C@H](C)NC(=O)CNC(=O)[C@H](Cc1ccccc1)NC(=O)[C@H](CC(N)=O)NC(=O)[C@@H]1CCCN1C(=O)[C@H](CO)NC(=O)[C@H](CO)NC(=O)[C@H](Cc1c[nH]cn1)NC(=O)[C@H](CCCNC(=N)N)NC(=O)[C@H](CC(C)C)NC(=O)[C@H](Cc1ccccc1)NC(=O)[C@H](CC(=O)O)NC(=O)[C@H](C)NC(=O)[C@H](CC(C)C)NC(=O)[C@H](CCCNC(=N)N)NC(=O)[C@H](CCC(N)=O)NC(=O)[C@@H](NC(=O)[C@H](C)NC(=O)[C@@H]1CSSC[C@H](NC(=O)[C@@H](N)CCCCNC(=O)CC[C@H](NC(=O)CC[C@H](NC(=O)CCCCCCCCCCCCCCCCCCC(=O)O)C(=O)O)C(=O)O)C(=O)N[C@@H](CC(N)=O)C(=O)N[C@@H]([C@@H](C)O)C(=O)N[C@@H](C)C(=O)N[C@@H]([C@@H](C)O)C(=O)N1)[C@@H](C)O)C(=O)N1CCC[C@H]1C(=O)N[C@@H](CO)C(=O)N[C@@H](CO)C(=O)N[C@H](C(=O)N[C@@H](CC(N)=O)C(=O)N[C@H](C(=O)NCC(=O)N[C@@H](CO)C(=O)N[C@@H](CCCNC(=N)N)C(=O)N[C@H](C(=O)N[C@@H](Cc1ccc(O)cc1)C(N)=O)[C@@H](C)O)C(C)C)[C@@H](C)O
notes: also called 14D, 17R, 21P, 27P, 35R
B6: N^ε1-[(4S)-4-carboxy-4-[[(4S)-4-carboxy-4-(19-carboxynonadecanoylamino)butanoyl]amino]butanoyl]-[Glu14,Arg17,Pro21,Pro27,Arg34,Glu35]-h-amylin (peptide)
peptide: K([γGlu-γGlu-C20 diacid])CNTATCATQRLAEFLRHSSPNFGAIPSSTNVGRETY-NH2
modifications: disulfide 2-7; N-terminus assumed
SMILES: CC[C@H](C)[C@H](NC(=O)[C@H](C)NC(=O)CNC(=O)[C@H](Cc1ccccc1)NC(=O)[C@H](CC(N)=O)NC(=O)[C@@H]1CCCN1C(=O)[C@H](CO)NC(=O)[C@H](CO)NC(=O)[C@H](Cc1c[nH]cn1)NC(=O)[C@H](CCCNC(=N)N)NC(=O)[C@H](CC(C)C)NC(=O)[C@H](Cc1ccccc1)NC(=O)[C@H](CCC(=O)O)NC(=O)[C@H](C)NC(=O)[C@H](CC(C)C)NC(=O)[C@H](CCCNC(=N)N)NC(=O)[C@H](CCC(N)=O)NC(=O)[C@@H](NC(=O)[C@H](C)NC(=O)[C@@H]1CSSC[C@H](NC(=O)[C@@H](N)CCCCNC(=O)CC[C@H](NC(=O)CC[C@H](NC(=O)CCCCCCCCCCCCCCCCCCC(=O)O)C(=O)O)C(=O)O)C(=O)N[C@@H](CC(N)=O)C(=O)N[C@@H]([C@@H](C)O)C(=O)N[C@@H](C)C(=O)N[C@@H]([C@@H](C)O)C(=O)N1)[C@@H](C)O)C(=O)N1CCC[C@H]1C(=O)N[C@@H](CO)C(=O)N[C@@H](CO)C(=O)N[C@H](C(=O)N[C@@H](CC(N)=O)C(=O)N[C@H](C(=O)NCC(=O)N[C@@H](CCCNC(=N)N)C(=O)N[C@@H](CCC(=O)O)C(=O)N[C@H](C(=O)N[C@@H](Cc1ccc(O)cc1)C(N)=O)[C@@H](C)O)C(C)C)[C@@H](C)O
notes: also called 14E, 17R, 21P, 27P, 34R, 35E

The assay deals with T1, human amylin receptor. The assay can be described thus: SPA competition binding, displacement of 125I-rat amylin from membranes with human amylin 3(a) receptor (Assay V). The gist of the method: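 Membranes from BHK Amylin 3(a)/CRE-luc cells (35 ng/μL final) were mixed with SPA beads and test compounds in 50 mM Hepes pH 7.4 with 1 mM CaCl2, 5 mM MgCl₂, 0.1% OA and 0.02% Tween20. Incubation ran 120 min at 25° C with shaking; IC₅₀ came from one-site competition fitting.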
Turning to B1, the IC50 – broadly, the concentration at which inhibition is half-maximal – turned out to be 0.131 nM.
The molecule B2 yielded an IC50 of 0.172 nM.
B3 came in with an IC50 of 0.169 nM.
B4 registered an IC50 of 0.411 nM.
Molecule B5 displayed an IC50 of 0.697 nM.
Molecule B6 returned an IC50 of 0.957 nM.

The values above are taken from US20140087995A1 (published 2014).
